The text below walks through data of US20200164032A1 (WASHINGTON UNIVERSITY, published 2020).

Experiment [1] has as its target CCL2 (species not given). As to the kind of experiment: SPR, R17 variant on CM5 chip; column ka x 10^6 M-1s-1. (In SPR one partner is held on a chip, and binding of the other changes the refractive index at the surface.)
The target of a further experiment is T1, murine CCL3 (mouse, UniProt P10855 24-92).
T1 sequence: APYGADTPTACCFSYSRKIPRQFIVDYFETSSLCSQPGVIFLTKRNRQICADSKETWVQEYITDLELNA

In the next experiment the target is T2, murine IL-6 (mouse, UniProt P08505 25-211).
T2 construct: also called mIL-6
T2 sequence: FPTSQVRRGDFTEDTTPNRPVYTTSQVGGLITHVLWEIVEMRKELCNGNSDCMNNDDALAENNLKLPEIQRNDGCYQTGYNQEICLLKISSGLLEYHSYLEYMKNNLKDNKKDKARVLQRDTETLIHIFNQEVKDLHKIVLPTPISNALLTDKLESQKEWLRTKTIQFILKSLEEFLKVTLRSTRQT
Briefly: SPR, R17 on CM5 chip.

A further experiment has as its target T3, murine CCL24 (mouse, UniProt Q9JKC0 27-119).
T3 construct: also called mCCL24
T3 sequence: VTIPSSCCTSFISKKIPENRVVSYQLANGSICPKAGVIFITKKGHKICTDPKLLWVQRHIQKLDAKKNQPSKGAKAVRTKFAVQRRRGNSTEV
Briefly: SPR, R17 on CM5 chip.

Another experiment has as its target T4, murine IL-12 (mouse, UniProt P43431 23-215; P43432 23-335).
T4 construct: also called mIL-12
T4 sequence 1: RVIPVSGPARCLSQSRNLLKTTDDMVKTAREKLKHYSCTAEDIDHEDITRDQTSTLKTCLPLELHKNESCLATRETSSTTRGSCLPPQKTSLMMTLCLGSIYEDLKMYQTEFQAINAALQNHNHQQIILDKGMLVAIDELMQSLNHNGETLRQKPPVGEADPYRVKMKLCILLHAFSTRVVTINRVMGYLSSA
T4 sequence 2: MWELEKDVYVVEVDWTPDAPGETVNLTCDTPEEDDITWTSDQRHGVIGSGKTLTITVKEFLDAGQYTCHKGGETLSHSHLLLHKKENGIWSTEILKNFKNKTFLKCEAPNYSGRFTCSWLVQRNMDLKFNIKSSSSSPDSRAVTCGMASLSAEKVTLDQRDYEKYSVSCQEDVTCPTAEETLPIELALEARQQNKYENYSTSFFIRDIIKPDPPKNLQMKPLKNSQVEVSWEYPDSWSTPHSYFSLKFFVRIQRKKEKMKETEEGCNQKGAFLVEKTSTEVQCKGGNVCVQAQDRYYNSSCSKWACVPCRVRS
As to the kind of experiment: SPR, R17 on CM5 chip.

Another experiment concerns the target T5, murine CXCL2 (mouse, UniProt P10889 28-100).
T5 construct: also called mCXCL2
T5 sequence: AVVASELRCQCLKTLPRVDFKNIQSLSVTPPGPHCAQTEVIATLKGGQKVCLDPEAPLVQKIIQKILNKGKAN
As to the kind of experiment: SPR, R17 on CM5 chip.

Another experiment addresses T6, human CCL2 (human, UniProt P13500 24-99).
T6 construct: also called hCCL2
Briefly: SPR, R17 on CM5 chip.

A further experiment addresses T7, murine CXCL10 (mouse, UniProt P17515 22-98).
T7 construct: also called mCXCL10
T7 sequence: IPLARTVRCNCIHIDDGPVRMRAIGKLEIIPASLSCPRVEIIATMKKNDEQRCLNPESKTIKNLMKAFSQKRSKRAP
As to the kind of experiment: SPR, R17 on CM5 chip.

The next experiment deals with T8, murine TNF-alpha (mouse, UniProt P06804 80-235).
T8 construct: also called mTNF-alpha; TNF-α
T8 sequence: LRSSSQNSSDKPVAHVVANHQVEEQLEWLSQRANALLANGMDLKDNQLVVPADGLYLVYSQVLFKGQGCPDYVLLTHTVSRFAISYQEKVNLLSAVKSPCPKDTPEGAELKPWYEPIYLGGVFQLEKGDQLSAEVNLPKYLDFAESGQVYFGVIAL
Briefly: SPR, R17 on CM5 chip.

For the next experiment, the target named is T9, murine CCL21 (mouse, UniProt P84444 24-133).
T9 construct: also called mCCL21
T9 sequence: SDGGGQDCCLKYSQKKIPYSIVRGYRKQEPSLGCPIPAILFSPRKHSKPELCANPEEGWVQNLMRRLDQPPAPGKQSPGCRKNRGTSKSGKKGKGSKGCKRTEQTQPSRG
As to the kind of experiment: SPR, R17 on CM5 chip.

The next experiment addresses T10, murine CXCL1 (mouse, UniProt P12850 25-96).
T10 construct: also called mCXCL1
T10 sequence: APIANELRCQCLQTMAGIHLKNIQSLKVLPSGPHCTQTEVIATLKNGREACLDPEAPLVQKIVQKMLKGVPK
Briefly: SPR, R17 on CM5 chip.

The target of a further experiment is T11, murine CXCL12 (mouse, UniProt P40224 22-89).
T11 construct: also called mCXCL12
Briefly: SPR, R17 on CM5 chip.

A further experiment deals with T12, murine IL-17 (mouse, UniProt Q62386 26-158).
T12 construct: also called mIL-17
T12 sequence: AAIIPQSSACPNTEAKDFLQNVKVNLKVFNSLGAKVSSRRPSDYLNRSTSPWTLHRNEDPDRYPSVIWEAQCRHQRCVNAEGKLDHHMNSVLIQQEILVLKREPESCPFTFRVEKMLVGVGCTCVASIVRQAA
As to the kind of experiment: SPR, R17 on CM5 chip.

The target of a further experiment is T13, human CCL3 (human, UniProt P10147 23-92).
T13 construct: also called hCCL3
T13 sequence: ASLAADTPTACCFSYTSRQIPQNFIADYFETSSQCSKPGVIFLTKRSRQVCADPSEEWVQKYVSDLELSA
Briefly: SPR, R17 on CM5 chip.

The next experiment has as its target T14, CCL9 (UniProt P51670 22-122).
T14 sequence: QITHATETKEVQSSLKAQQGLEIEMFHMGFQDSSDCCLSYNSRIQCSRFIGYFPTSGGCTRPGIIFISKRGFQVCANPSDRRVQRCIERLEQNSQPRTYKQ
As to the kind of experiment: SPR, R17 on CM5 chip; KD,eq from saturation binding, Scatchard analysis.

The next experiment deals with T15, human CCL5 (human, UniProt P13501 24-91).
T15 construct: also called hCCL5
T15 sequence: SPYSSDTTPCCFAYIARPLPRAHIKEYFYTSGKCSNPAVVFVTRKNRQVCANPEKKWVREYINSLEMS
Described as above.

T11 sequence (P40224 22-89 limits assumed): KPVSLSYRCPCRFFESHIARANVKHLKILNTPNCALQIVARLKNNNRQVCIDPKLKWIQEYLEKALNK
T6 sequence (P13500 24-99 limits assumed): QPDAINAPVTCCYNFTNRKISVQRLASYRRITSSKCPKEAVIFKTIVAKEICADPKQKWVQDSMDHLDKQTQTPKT

B1: R17 chemokine decoy receptor of Rodent herpesvirus Peru (RHVP), wild type, C-terminal 8-His fusion (receptor)
chain: GPVGEPVASEINEASKVSSRLLTQDILFRKDRQATISLPIKLPVEDIITQTCDKITYGPLKFLDLLEKETAVLPLSTDITCPACLGRAVLVGKWECPAHVAVNESDLTVFGPNKEEHVPQFVTVQQPSDGKMQRLFFAKFLGTEESLAVLRVPGPDGHLCIQEALIHFKELSGAGVCSLWKANDSREEGLEMKQVDCLETTVLENQTCIATTLSKKIYHRLYCGERLMTGGQVSTRVLLTALGFYKRQPYTFHRVPKGMVYVHLIDSGSEDYMEYSECEEVTPGRYEDKQISYTFYTDLFQTADGEPVLASVWGTSGLKDSAYESCAFVIPTKGRRKLVPRRIMSKCYPFRLTYHPSTMTVRLDVRVEKHHGATDQGFVFLKMESGTYSEGREYYLDRVLWGEDSSTNNVLQ
notes: not shown: C-terminal 8-His tag
Turning to B1, the kon (as a rule, the second-order rate constant of association) in [1] was 2e+06 M⁻¹ s⁻¹. Further, the figures for the Kd with murine CCL3, with CCL9 and with human CCL5 were 1.4 nM, 1.3 nM and 0.9 nM, respectively. In addition, the binding result with murine IL-6, with murine IL-12, in the experiment with murine CXCL2, in the experiment with murine CXCL10, with murine TNF-alpha and in the experiment with murine CCL21 was “no binding” throughout. In addition, the binding result with murine CXCL1, with murine CXCL12 and in the experiment with murine IL-17 was “no binding” throughout. Further, the complex half-life with murine CCL24 was above 10 min. The “complex half-life (t1/2)” value with human CCL2 stood at 0.035 min. Also, the “apparent complex half-life (t1/2,app)” value with human CCL3 was above 16.7 min.
